Data from PMC11191739, “Structural Flexibility and Disassembly Kinetics of Single Ferritin Molecules Using Optical Nanotweezers” (ACS Nano, 2024).

Target: the molecule itself
Assay: mass photometry; 50 nM ferritin at pH 2, measured at 1, 3 and 60 min, TwoMP mass photometer

B1: holo-ferritin (derived from equine spleen, F4503) (natural protein)
chain 1: MSSQIRQNYSTEVEAAVNRLVNLYLRASYTYLSLGFYFDRDDVALEGVCHFFRELAEEKREGAERLLKMQNQRGGRALFQDLQKPSQDEWGTTLDAMKAAIVLEKSLNQALLDLHALGSAQADPHLCDFLESHFLDEEVKLIKKMGDHLTNIQRLVGSQAGLGEYLFERLTLKHD
chain 2: MTTAFPSQVRQNYHQDSEAAINRQINLELHASYVYLSMSFYFDRDDVALKNFAKYFLHQSHEEREHAEKLMKLQNQRGGRIFLQDIKKPDQDDWENGLKAMECALHLEKNVNESLLELHKLATDKNDPHLCDFLETHYLNEQVKAIKELGDHVTNLRRMGAPESGMAEYLFDKHTLGECDES
notes: ferritin light (L) chain, equine spleen; ferritin heavy (H) chain, equine spleen; It carries a ferrihydrite iron core; Rows of m1 with itself describe the self-association of the subunits; also called equine spleen ferritin; source: bought: Sigma-Aldrich (F4503), derived from equine spleen
stoichiometry N: 18
